{"source": "patent US20140030725", "key": {"[1]": {"system": "CBS-HaloTag (CBS-HT) fusion protein (CBS variant 1A5 cloned into pFN19K HaloTag)", "sequence (chain, as listed by the source mutant)": "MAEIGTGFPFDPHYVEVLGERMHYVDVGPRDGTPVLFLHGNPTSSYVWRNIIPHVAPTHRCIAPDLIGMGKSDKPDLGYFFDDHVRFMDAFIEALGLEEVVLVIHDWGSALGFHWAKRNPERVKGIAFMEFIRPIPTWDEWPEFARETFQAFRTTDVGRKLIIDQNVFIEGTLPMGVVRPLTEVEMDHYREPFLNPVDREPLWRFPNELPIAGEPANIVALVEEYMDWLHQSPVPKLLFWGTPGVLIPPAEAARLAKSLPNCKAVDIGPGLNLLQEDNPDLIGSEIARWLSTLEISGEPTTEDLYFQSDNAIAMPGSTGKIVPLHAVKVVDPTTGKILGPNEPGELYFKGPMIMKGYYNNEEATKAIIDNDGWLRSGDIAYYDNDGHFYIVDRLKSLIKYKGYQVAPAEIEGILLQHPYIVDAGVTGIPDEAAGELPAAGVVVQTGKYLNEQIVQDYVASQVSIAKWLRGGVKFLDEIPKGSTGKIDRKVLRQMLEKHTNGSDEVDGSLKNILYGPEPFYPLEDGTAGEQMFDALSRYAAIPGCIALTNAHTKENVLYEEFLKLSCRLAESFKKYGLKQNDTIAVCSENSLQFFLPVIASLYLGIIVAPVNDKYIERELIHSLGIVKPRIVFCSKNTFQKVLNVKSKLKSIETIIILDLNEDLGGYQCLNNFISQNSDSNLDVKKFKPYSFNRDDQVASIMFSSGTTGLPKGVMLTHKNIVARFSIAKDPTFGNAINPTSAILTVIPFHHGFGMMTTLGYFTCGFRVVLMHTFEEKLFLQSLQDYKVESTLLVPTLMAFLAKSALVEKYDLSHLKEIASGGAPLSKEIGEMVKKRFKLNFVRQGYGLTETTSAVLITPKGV"}, "[2]": {"system": "HQ:CBS:HT (5xHQ tag:CBS variant 1A5:HaloTag), from pFNA:HQ(5x):CBS:HT(7)"}}, "data": [{"substance": "recombinant caspase-3 (E. coli KRX lysate, pTS1k:caspase-3(T/S))", "values": [{"measurement": "INDUCED luminescence (5 min; CBS-HT from wheat germ extract + E. coli lysate containing caspase-3)", "setting": "[1]", "value": "4,626,173"}, {"measurement": "INDUCED luminescence, CBS-HT immobilised on HaloLink RESIN", "setting": "[1]", "value": "1,635,259"}, {"measurement": "INDUCED luminescence, CBS-HT immobilised on HaloTag-ligand plate, 0 min", "setting": "[1]", "value": "1,226"}, {"measurement": "INDUCED luminescence, CBS-HT immobilised on HaloTag-ligand plate, 1 min", "setting": "[1]", "value": "1,636"}, {"measurement": "INDUCED luminescence, CBS-HT immobilised on HaloTag-ligand plate, 2 min", "setting": "[1]", "value": "2,267"}, {"measurement": "INDUCED luminescence, CBS-HT immobilised on HaloTag-ligand plate, 3 min", "setting": "[1]", "value": "2,147"}, {"measurement": "INDUCED luminescence, CBS-HT immobilised on HaloTag-ligand plate, 4 min", "setting": "[1]", "value": "2,297"}, {"measurement": "INDUCED luminescence, CBS-HT immobilised on HaloTag-ligand plate, 5 min", "setting": "[1]", "value": "2,857"}, {"measurement": "INDUCED luminescence, CBS-HT immobilised on HaloTag-ligand plate, 6 min", "setting": "[1]", "value": "3,107"}, {"measurement": "INDUCED luminescence, CBS-HT immobilised on HaloTag-ligand plate, 7 min", "setting": "[1]", "value": "3,377"}, {"measurement": "INDUCED luminescence, CBS-HT immobilised on HaloTag-ligand plate, 8 min", "setting": "[1]", "value": "3,037"}, {"measurement": "INDUCED luminescence, CBS-HT immobilised on HaloTag-ligand plate, 9 min", "setting": "[1]", "value": "3,667"}, {"measurement": "INDUCED luminescence, sample AS (HaloLink resin immobilisation experiment)", "setting": "[1]", "value": "5,162,108"}, {"measurement": "INDUCED luminescence, sample FT (HaloLink resin immobilisation experiment)", "setting": "[1]", "value": "232,117"}, {"measurement": "RESPONSE (induced/basal luminescence; 5 min; CBS-HT from wheat germ extract)", "setting": "[1]", "value": 441, "unit": "fold"}, {"measurement": "RESPONSE, CBS-HT immobilised on HaloLink RESIN", "setting": "[1]", "value": 146, "unit": "fold"}, {"measurement": "RESPONSE, CBS-HT immobilised on HaloTag-ligand plate, 0 min", "setting": "[1]", "value": 19, "unit": "fold"}, {"measurement": "RESPONSE, CBS-HT immobilised on HaloTag-ligand plate, 1 min", "setting": "[1]", "value": 102, "unit": "fold"}, {"measurement": "RESPONSE, CBS-HT immobilised on HaloTag-ligand plate, 2 min", "setting": "[1]", "value": 21, "unit": "fold"}, {"measurement": "RESPONSE, CBS-HT immobilised on HaloTag-ligand plate, 3 min", "setting": "[1]", "value": 33, "unit": "fold"}, {"measurement": "RESPONSE, CBS-HT immobilised on HaloTag-ligand plate, 4 min", "setting": "[1]", "value": 18, "unit": "fold"}, {"measurement": "RESPONSE, CBS-HT immobilised on HaloTag-ligand plate, 5 min", "setting": "[1]", "value": 23, "unit": "fold"}, {"measurement": "RESPONSE, CBS-HT immobilised on HaloTag-ligand plate, 6 min", "setting": "[1]", "value": 41, "unit": "fold"}, {"measurement": "RESPONSE, CBS-HT immobilised on HaloTag-ligand plate, 7 min", "setting": "[1]", "value": 60, "unit": "fold"}, {"measurement": "RESPONSE, CBS-HT immobilised on HaloTag-ligand plate, 8 min", "setting": "[1]", "value": 22, "unit": "fold"}, {"measurement": "RESPONSE, CBS-HT immobilised on HaloTag-ligand plate, 9 min", "setting": "[1]", "value": 32, "unit": "fold"}, {"measurement": "RESPONSE, sample AS (HaloLink resin immobilisation experiment)", "setting": "[1]", "value": 175, "unit": "fold"}, {"measurement": "RESPONSE, sample FT (HaloLink resin immobilisation experiment)", "setting": "[1]", "value": 73, "unit": "fold"}, {"measurement": "INDUCED luminescence, HisLink elution fraction E1", "setting": "[2]", "value": "2,951,899"}, {"measurement": "INDUCED luminescence, HisLink elution fraction E2", "setting": "[2]", "value": "40,913,496"}, {"measurement": "INDUCED luminescence, HisLink elution fraction E3", "setting": "[2]", "value": "3,287,059"}, {"measurement": "INDUCED luminescence, HisLink elution fraction E4", "setting": "[2]", "value": "215,580"}, {"measurement": "INDUCED luminescence, HisLink elution fraction E5", "setting": "[2]", "value": "48,068"}, {"measurement": "INDUCED luminescence, HisLink purification sample HSS", "setting": "[2]", "value": "12,875,742"}, {"measurement": "INDUCED luminescence, HisLink purification sample NSM", "setting": "[2]", "value": "5,822,003"}, {"measurement": "INDUCED luminescence, HisLink purification sample WASH", "setting": "[2]", "value": "3,706,541"}, {"measurement": "INDUCED luminescence, purified HQ:CBS:HT immobilised on HaloLink plate", "setting": "[2]", "value": "661,597"}, {"measurement": "RESPONSE, HisLink elution fraction E1", "setting": "[2]", "value": 699, "unit": "fold"}, {"measurement": "RESPONSE, HisLink elution fraction E2", "setting": "[2]", "value": 212, "unit": "fold"}, {"measurement": "RESPONSE, HisLink elution fraction E3", "setting": "[2]", "value": 178, "unit": "fold"}, {"measurement": "RESPONSE, HisLink elution fraction E4", "setting": "[2]", "value": 191, "unit": "fold"}, {"measurement": "RESPONSE, HisLink elution fraction E5", "setting": "[2]", "value": 178, "unit": "fold"}, {"measurement": "RESPONSE, HisLink purification sample HSS", "setting": "[2]", "value": 43, "unit": "fold"}, {"measurement": "RESPONSE, HisLink purification sample NSM", "setting": "[2]", "value": 33, "unit": "fold"}, {"measurement": "RESPONSE, HisLink purification sample WASH", "setting": "[2]", "value": 479, "unit": "fold"}, {"measurement": "RESPONSE, purified HQ:CBS:HT immobilised on HaloLink plate", "setting": "[2]", "value": 96, "unit": "fold"}]}]}
